Data: US20190016826A1 (Genentech, published 2019)

B1: YW505.94a.28 Fab (Fab, V domains shown)
VH: EVQLVESGGGLVQPGGSLRLSCAASGFSISGYYIHWVRQAPGKGLEWVGWIDPYGGDTNYADSVKGRFTISADTSKNTAYLQMNSLRAEDTAVYYCARGTFLTSWGHYFDYWGQGT
VL: DIQMTQSPSSLSASVGDRVTITCRASQSINTYLAWYQQKPGKAPKLLIYSASFLYSGVPSRFSGSGSGTDFTLTISSLQPEDFATYYCQQSDDTPPTFGQGTKVEIKR
B2: YW505.94a.54 Fab (Fab, V domains shown)
VH: EVQLVESGGGLVQPGGSLRLSCAASGFSISGYYIHWVRQAPGKGLEWVGWIDPYGGDTNYADSVKGRFTISADTSKNTAYLQMNSLRAEDTAVYYCARGTFLTSWGHYFDYWGQGT
VL: DIQMTQSPSSLSASVGDRVTITCRASQVVGNYLAWYQQKPGKAPKLLIYSASFLYSGVPSRFSGSGSGTDFTLTISSLQPEDFATYYCQQSDDHPPTFGQGTKVEIKR
B3: YW505.94a.28 IgG (antibody, V domains shown)
VH: EVQLVESGGGLVQPGGSLRLSCAASGFSISGYYIHWVRQAPGKGLEWVGWIDPYGGDTNYADSVKGRFTISADTSKNTAYLQMNSLRAEDTAVYYCARGTFLTSWGHYFDYWGQGT
VL: DIQMTQSPSSLSASVGDRVTITCRASQSINTYLAWYQQKPGKAPKLLIYSASFLYSGVPSRFSGSGSGTDFTLTISSLQPEDFATYYCQQSDDTPPTFGQGTKVEIKR

How the values were obtained:
[1] = biological target: T1, Full length human HtrA1 (HuHtrA1) (Q23-P480), N-terminal His6 tag (human, UniProt Q92743 23-480); assay: SPR (BIAcore T100), single-cycle kinetics, biotinylated human HtrA1 captured on streptavidin, Fab in solution
T1 construct: Expressed in Trichoplusia ni insect cells
Excerpt: (§1) To determine the binding affinity of HtrA1 antibodies by single cycle kinetics, Surface Plasmon Resonance (SRP) measurement with a BIAcore™ T100 instrument was used. Briefly, a series S sensor chip CM5 was activated with EDC and NHS reagents according to the supplier's instructions, and streptavidin (Pierce) was coupled to achieve approximately 2000 response units (RU), followed by blocking un-reacted groups with 1M ethanolamine.
(§2) For kinetics measurements, biotinylated human or murine HtrA1 was first injected at 10 ul/min flow rate to capture approximately 100 RU at 3 different flow cells (FC), except for FC1 (reference), and then 5-fold serial dilutions of anti-HtrA1 Fab in HBS-P buffer (0.01M HEPES pH 7.4, 0.15M NaCl, 0.005% surfactant P20) from low (0.48 nM) to high (300 nM) [5 points] were injected (flow rate: 30 μl/min) one after the other in the same cycle with no regeneration between injections. The sensorgram was recorded and subject to reference and buffer subtraction before evaluation by BIAcore™ T100 Evaluation Software (version 2.0). Association rates (km) and dissociation rates (koff) were calculated using a simple one-to-one Langmuir binding model. The equilibrium dissociation constant (Kd) was calculated as the ratio koff/kₒₙ.

[2] = biological target: Protease domain of human HtrA1 (HuHtrA1_PD), residues D161-K379 (human, UniProt F1N152 168-386 (bovine entry)); assay: cell-based or functional assay
[3] = biological target: T1, Full length human HtrA1 (HuHtrA1) …; assay: cell-based or functional assay
[4] = biological target: T2, Full length murine HtrA1 (MuHtrA1) (P24-P480), N-terminal His6 tag (murine, UniProt Q9R118 24-480); assay: SPR (BIAcore T100), single-cycle kinetics, biotinylated murine HtrA1 captured on streptavidin, Fab in solution
T2 construct: Expressed in insect cells
Excerpt: as §1, §2

[5] = biological target: T2, Full length murine HtrA1 (MuHtrA1) …; assay: phage competition ELISA: Fab-phage pre-incubated with serially diluted soluble MuHtrA1 (x axis), unbound phage captured on HuHtrA1-coated plate
Procedure: (§3) MAXISORP™ microtiter plates were coated with HuHtrA1 at 2 μg/ml in PBS for 2 hr at RT and then blocked with PBST buffer for another hour at RT. Purified phage from culture supernatants were incubated with serially diluted HuHtrA1 or MuHtrA1 in PBST buffer in a tissue-culture microtiter plate for an hour, after which 80 μl of the mixture was transferred to the HuHtrA1-coated wells for 15 minutes to capture unbound phage. The plate was washed with PBT buffer, and HRP-conjugated anti-M13 (Amersham Pharmacia Biotech) was added (1:5000 in PBST buffer) for one hour. The plate was washed with PBT buffer and developed by adding tetramethylbenzidine substrate (Kirkegaard and Perry Laboratories, Gaithersburg, Md.). The absorbance at 450 nm was plotted as a function of HuHtrA1 or MuHtrA1 concentration in solution to determine phage IC₅₀.

[6] = biological target: T1, Full length human HtrA1 (HuHtrA1) …; assay: phage competition ELISA: Fab-phage pre-incubated with serially diluted soluble HuHtrA1 (x axis), unbound phage captured on HuHtrA1-coated plate
Procedure: as §3

T1 sequence (Q92743 other isoform, or with tags, fused parts or gaps): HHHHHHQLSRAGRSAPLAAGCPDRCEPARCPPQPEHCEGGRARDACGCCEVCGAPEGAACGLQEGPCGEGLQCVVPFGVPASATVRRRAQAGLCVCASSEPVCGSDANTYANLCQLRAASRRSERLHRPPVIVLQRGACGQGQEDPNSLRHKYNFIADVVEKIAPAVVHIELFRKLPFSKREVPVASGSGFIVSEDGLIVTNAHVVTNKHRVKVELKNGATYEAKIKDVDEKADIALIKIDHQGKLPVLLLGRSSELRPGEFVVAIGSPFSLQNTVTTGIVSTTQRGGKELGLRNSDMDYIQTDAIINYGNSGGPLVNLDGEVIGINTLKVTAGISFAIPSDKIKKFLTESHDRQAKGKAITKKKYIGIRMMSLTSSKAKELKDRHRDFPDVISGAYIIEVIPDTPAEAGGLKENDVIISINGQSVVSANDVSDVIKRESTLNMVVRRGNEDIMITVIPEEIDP
T2 sequence (Q9R118 other isoform, or with tags, fused parts or gaps): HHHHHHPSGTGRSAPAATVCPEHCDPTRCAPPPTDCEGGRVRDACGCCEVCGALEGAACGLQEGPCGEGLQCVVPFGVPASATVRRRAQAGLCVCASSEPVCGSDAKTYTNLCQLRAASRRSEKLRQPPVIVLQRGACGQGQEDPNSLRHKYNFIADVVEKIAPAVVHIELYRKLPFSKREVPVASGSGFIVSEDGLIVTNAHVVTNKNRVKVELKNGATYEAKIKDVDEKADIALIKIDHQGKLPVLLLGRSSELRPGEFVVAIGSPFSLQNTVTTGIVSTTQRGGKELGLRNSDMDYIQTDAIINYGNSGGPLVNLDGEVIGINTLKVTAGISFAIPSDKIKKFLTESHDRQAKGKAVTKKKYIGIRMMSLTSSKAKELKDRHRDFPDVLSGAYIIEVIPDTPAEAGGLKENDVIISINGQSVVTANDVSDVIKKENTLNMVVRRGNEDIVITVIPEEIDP
Chain of Protease domain of human HtrA1 (HuHtrA1_PD), residues D161-K379 (F1N152 other isoform, or with tags, fused parts or gaps): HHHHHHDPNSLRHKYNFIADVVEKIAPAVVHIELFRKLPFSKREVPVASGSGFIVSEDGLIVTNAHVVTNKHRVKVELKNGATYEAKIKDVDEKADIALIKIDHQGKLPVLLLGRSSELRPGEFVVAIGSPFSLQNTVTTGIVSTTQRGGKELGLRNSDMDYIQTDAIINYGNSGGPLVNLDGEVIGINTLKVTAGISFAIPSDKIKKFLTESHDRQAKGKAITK

| Binder | Kd [1] [nM] | koff [1] [s⁻¹] | kon [1] [M⁻¹ s⁻¹] | IC50, inhibition of H2-Opt hydrolysis (FRET assay, 1.5 nM HuHtrA1_PD) [2] [nM] | IC50, inhibition of H2-Opt hydrolysis (FRET assay, 1.0 nM HuHtrA1) [3] [nM] | Kd [4] [nM] | koff [4] [s⁻¹] | kon [4] [M⁻¹ s⁻¹] | IC50 (read off the curve) [5] [nM] | IC50 (read off the curve) [6] [nM] |
| --- | --- | --- | --- | --- | --- | --- | --- | --- | --- | --- |
| B1 | 3.4 | 0.00574 | 1.69e+06 | 2.03 | 1.95 | 4.6 | 0.0093 | 2.02e+06 | – | – |
| B2 | 2.6 | 0.00784 | 2.97e+06 | – | – | 1.6 | 0.00455 | 2.82e+06 | ~2 | ~0.5 |
| B3 | – | – | – | 0.229 | 0.335 | – | – | – | – | – |
